For one molecule, Kd, koff and kon results are on record in publication PMC3712923, “Structure-Guided Design of an Engineered Streptavidin with Reusability to Purify Streptavidin-Binding Peptide Tagged Proteins or Biotinylated Proteins” (PLoS ONE, 2013).

Assay in all cases: SPR; BIAcoreX; synthetic SBP peptide thiol-coupled by its N-terminal cysteine to a CM5 chip, streptavidin variant as analyte; blank flow cell as reference
Holding throughout (details): both partners purified

Experiment [1] addresses T1, wild-type streptavidin (UniProt P22629 25-183).
T1 construct: wild-type streptavidin, commercial; also called wt SAV; wt streptavidin; source: bought: Sigma Canada

In experiment [2] the target is T2, SAVSBPM12 streptavidin mutein (G48T) (UniProt P22629 25-183, G48T).
T2 construct: streptavidin with the mutation G48T; Secreted by means of the SacB signal peptide; Its oligomeric state was not measured; also called G48T streptavidin mutein; source: B. subtilis WB800[pSAVSBPM12], secreted, purified (biotin-agarose), denatured and renatured, then iminobiotin-agarose
T2 sequence (P22629 25-183 G72T): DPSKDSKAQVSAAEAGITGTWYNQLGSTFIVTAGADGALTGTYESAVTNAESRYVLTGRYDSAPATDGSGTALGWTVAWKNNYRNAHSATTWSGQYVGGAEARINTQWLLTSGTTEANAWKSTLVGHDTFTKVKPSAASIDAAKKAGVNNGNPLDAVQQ

The target in experiment [3] is T3, SAVSBPM18 engineered streptavidin (S27A, G48T) (UniProt P22629 25-183, S27A | G48T).
T3 construct: streptavidin with the double mutation S27A, G48T; Secreted by means of the B. subtilis levansucrase (SacB) signal peptide; also called streptavidin SAVSBPM18; source: B. subtilis WB800[pSAVSBPM18], secreted, purified (biotin-agarose)
T3 sequence (P22629 25-183 S51A/G72T): as the sequence (P22629 25-183 G72T) above, with S27A counted along it

T1 sequence (P22629 25-183): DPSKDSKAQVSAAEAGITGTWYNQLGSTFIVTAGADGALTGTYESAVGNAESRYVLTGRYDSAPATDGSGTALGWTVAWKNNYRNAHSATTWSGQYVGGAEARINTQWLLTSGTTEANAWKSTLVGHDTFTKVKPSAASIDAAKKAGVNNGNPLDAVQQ

B1: synthetic 59-amino acid peptide with the full length SBP tag (peptide)
peptide: CGGGGSTSGGSTSGGSTSGGGMDEKTTGWRGGHVVEGLAGELEQLRARLEHHPQGQREP
notes: N-terminal cysteine for thiol coupling to the CM5 chip, then the 20-amino-acid glycine-rich linker; the limits are worked out as 1 Cys + 20 linker + 38 SBP = 59; also called SBP tag (peptide); synthetic SBP tag; source: synthetic peptide (Peptide 2.0 Inc.)
For orientation: Kd means the equilibrium constant for the complex coming apart. Lower therefore signals tighter binding. The term koff denotes a measure of how fast the partners let go of each other. A high value points to a short-lived complex. Broadly, the kon is the rate constant with which the complex forms. Low readings indicate slow association, high ones fast association. In the case of B1, in experiment [1], the affinity, expressed as Kd, was 1.65 nM; the koff was determined as 0.000496 s⁻¹; the kon is 300000 M⁻¹ s⁻¹. In experiment [2], this molecule displayed a Kd of 1.99 nM, an off-rate (koff) of 0.00056 s⁻¹ and a kon of 281000 M⁻¹ s⁻¹. Besides, in experiment [3], the affinity, expressed as Kd, was 7.67 nM; the koff is 0.000821 s⁻¹; the kon is 107000 M⁻¹ s⁻¹.
